Assay results: patent publication US20020164690A1
Each block holds one substance with its values, some of them ahead of it.

What was measured:
[1] = target: CNTF receptor on EW-1 cells (CNTFRα, gp130 and LIFRβ) (UniProt P26992); assay: Scatchard analysis on EW-1 cells, two-site fit; site not assigned in words
[2] = target: CNTFRα:β1 (CNTFRα and gp130) on PC12D cells (UniProt Q08406); assay: Scatchard analysis of 125I-CNTF saturation binding on PC12D cells, two-site fit; high affinity site, interpreted as the intermediate of CNTF, CNTFRα and gp130
CNTFRα on PC12D cells = CNTFRα on PC12D cells (UniProt Q08406); assay: Scatchard analysis of 125I-CNTF saturation binding on PC12D cells, two-site fit; low affinity site, said to correspond to CNTF with CNTFRα
[3] = target: recombinant human IL-1 (human); assay: cell-based or functional assay
human IL-13 (human) = human IL-13 (human) (UniProt P35225); assay: cell-based or functional assay
human IL-4 (human) = human IL-4 (human) (UniProt P05112); assay: cell-based or functional assay
human IL-4 (human), sequence (P05112 25-153 limits assumed): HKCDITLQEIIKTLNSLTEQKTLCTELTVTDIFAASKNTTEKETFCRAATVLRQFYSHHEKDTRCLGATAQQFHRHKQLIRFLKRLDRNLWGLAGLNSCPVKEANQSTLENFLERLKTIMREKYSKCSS

human IL-13 (human), sequence (P35225 35-146 limits assumed): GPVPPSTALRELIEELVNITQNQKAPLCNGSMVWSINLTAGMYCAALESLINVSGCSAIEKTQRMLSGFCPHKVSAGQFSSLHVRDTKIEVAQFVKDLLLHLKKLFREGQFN
IL-1-RI.Fc, sequence (P14778 18-336): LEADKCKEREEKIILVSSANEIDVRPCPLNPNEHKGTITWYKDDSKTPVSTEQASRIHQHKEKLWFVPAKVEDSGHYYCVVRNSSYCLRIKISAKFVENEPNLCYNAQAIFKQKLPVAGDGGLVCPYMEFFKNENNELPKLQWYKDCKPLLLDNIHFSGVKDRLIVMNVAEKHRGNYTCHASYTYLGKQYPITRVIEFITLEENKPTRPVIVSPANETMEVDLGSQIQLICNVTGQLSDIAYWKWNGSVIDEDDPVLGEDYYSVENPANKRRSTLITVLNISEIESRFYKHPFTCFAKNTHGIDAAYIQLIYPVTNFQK
CNTF receptor on EW-1 cells (CNTFRα, gp130 and LIFRβ), sequence (P26992 23-342 limits assumed, chain 1 of 3): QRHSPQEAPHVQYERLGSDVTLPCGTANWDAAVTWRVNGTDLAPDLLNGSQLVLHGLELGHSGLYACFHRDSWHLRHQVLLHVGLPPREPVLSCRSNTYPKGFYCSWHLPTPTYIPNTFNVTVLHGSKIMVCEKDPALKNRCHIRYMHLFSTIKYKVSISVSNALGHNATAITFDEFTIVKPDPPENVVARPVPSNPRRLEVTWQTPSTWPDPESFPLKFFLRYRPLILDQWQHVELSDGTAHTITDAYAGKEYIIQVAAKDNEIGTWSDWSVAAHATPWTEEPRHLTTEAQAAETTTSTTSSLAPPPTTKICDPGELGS
CNTF receptor on EW-1 cells (CNTFRα, gp130 and LIFRβ), sequence (P40189 23-918 limits assumed, chain 2 of 3, further chain): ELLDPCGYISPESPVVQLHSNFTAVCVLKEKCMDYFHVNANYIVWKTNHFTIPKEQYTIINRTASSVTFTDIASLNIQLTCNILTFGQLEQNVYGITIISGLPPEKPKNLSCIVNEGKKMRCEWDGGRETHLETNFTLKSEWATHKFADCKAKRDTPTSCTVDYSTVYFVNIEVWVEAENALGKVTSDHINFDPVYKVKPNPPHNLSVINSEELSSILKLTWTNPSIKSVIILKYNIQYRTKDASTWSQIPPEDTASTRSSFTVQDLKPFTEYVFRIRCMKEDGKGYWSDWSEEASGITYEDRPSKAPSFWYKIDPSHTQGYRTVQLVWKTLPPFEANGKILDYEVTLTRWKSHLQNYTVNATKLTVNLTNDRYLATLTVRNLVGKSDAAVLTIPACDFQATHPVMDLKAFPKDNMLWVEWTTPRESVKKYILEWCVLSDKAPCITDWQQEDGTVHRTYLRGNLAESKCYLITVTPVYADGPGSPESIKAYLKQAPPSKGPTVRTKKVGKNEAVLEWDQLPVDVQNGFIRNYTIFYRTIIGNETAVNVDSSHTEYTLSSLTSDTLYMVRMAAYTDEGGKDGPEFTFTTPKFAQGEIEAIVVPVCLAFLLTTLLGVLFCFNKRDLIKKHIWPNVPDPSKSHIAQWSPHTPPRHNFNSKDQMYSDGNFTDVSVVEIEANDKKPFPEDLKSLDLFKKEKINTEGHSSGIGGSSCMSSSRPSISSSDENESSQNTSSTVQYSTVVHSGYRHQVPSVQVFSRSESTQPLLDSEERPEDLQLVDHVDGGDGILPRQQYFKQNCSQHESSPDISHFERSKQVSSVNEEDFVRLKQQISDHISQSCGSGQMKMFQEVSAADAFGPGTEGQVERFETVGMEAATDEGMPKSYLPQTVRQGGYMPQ
CNTF receptor on EW-1 cells (CNTFRα, gp130 and LIFRβ), sequence (P42702 45-1097 limits assumed, chain 3 of 3, further chain): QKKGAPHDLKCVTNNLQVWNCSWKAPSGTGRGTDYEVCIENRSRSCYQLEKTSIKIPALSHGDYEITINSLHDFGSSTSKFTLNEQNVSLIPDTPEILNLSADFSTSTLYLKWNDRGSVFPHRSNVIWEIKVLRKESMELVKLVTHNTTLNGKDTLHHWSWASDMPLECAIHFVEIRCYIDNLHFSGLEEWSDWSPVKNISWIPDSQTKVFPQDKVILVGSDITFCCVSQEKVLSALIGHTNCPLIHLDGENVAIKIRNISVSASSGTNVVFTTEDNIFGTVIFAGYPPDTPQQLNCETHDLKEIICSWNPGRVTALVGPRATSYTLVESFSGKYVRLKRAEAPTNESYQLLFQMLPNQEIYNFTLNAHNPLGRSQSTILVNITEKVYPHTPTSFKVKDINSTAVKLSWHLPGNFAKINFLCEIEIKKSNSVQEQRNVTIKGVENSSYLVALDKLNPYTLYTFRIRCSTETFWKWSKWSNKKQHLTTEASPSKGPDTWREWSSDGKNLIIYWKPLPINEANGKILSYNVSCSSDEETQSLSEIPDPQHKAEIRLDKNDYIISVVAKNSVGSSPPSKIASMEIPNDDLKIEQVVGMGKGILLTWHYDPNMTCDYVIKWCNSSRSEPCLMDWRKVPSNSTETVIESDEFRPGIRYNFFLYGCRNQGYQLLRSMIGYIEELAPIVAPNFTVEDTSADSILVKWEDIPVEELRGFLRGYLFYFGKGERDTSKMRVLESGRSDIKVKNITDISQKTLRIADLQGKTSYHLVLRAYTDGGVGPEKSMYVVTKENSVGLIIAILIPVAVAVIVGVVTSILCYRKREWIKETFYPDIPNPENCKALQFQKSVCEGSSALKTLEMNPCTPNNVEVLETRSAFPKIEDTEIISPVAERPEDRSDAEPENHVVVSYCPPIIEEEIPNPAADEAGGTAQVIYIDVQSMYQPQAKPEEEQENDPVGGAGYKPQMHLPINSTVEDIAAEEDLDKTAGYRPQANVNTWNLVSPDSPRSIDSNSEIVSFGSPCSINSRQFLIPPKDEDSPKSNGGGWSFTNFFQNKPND
CNTFRα:β1 (CNTFRα and gp130) on PC12D cells, sequence (Q08406 23-342 limits assumed, chain 1 of 2): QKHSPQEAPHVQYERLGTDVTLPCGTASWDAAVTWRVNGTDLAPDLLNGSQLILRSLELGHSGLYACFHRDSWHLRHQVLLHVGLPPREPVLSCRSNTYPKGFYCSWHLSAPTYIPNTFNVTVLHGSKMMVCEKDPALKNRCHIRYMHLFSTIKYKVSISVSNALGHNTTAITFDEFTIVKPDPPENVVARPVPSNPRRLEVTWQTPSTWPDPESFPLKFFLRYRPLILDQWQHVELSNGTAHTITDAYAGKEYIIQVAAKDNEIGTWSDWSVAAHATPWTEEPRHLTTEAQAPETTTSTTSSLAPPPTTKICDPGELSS
CNTFRα:β1 (CNTFRα and gp130) on PC12D cells, sequence (P40190 23-918 limits assumed, chain 2 of 2, further chain): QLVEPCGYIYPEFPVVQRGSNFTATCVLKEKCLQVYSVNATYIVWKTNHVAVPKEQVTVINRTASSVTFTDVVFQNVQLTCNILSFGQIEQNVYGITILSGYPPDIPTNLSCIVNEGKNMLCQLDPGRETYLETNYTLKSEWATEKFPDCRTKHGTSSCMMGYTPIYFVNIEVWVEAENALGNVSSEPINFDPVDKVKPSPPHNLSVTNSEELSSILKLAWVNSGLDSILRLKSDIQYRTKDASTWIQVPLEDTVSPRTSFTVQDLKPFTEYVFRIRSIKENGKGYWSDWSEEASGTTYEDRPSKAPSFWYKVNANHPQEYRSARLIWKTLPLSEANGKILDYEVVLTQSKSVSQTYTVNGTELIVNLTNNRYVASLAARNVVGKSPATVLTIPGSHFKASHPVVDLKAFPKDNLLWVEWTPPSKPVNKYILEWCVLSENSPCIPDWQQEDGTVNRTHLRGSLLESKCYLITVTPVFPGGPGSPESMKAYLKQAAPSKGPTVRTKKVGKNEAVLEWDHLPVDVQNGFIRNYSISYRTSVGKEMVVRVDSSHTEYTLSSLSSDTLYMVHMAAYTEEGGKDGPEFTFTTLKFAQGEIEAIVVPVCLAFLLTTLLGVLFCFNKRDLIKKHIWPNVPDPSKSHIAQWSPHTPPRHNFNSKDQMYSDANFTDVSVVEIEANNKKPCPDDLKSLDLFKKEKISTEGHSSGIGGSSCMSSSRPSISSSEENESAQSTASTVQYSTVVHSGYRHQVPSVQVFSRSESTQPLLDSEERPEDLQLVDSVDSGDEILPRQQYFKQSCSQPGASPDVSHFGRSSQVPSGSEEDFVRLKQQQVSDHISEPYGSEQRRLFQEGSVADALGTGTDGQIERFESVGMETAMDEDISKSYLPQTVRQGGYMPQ
CNTFRα on PC12D cells, sequence (Q08406 23-342 limits assumed): as the sequence (Q08406 23-342 limits assumed, chain 1 of 2) above

IL-1-dependent production of IL-6 by MRC5 cells: IL-1 concentration blocked [3]: 10 to 20 pM
Substance: IL-1-RI.Fc (from UniProt P14778 18-336) (Fc fusion)

TF1 bioassay: activity against IL-4/IL-13 Trap 943 (fold (against Trap 943)) (human IL-13 (human)): 2 to 3
Substance: IL-4/IL-13 Trap 1132 (from UniProt P24394 26-232; P78552 27-343) (Fc fusion)

Further lines, the substance ahead of its results:

Substance: 125I-CNTF (ligand)
Kd [1]: 1 nM
Kd [2]: 0.009 nM
Kd (CNTFRα on PC12D cells): 3.4 nM

Substance: IL-4Rα.IL-13Rα1.Fc (from UniProt P24394 26-232; P78552 22-343) (Fc fusion)
TF1 bioassay: IL-13 concentration at which growth is inhibited by 50% (10 nM trap) (human IL-13 (human)): 4 to 5 nM
TF1 bioassay: IL-13 concentration up to which 10 nM trap blocks growth (human IL-13 (human)): 2 nM

Substance: IL-13Rα1.IL-4Rα.Fc (from UniProt P78552 22-343; P24394 26-232) (Fc fusion)
TF1 bioassay: IL-4 concentration at which growth is inhibited by 50% (10 nM trap) (human IL-4 (human)): 3 to 4 nM
TF1 bioassay: IL-4 concentration up to which 10 nM trap blocks growth (human IL-4 (human)): 1 nM
TF1 bioassay: IL-13 concentration at which growth is inhibited by 50% (10 nM trap) (human IL-13 (human)): 4 to 5 nM
TF1 bioassay: IL-13 concentration up to which 10 nM trap blocks growth (human IL-13 (human)): 2 nM
